Drawing on patent publication US20220290113, this text covers activity for 3 sequences.

The data set has as its system Nme2Cas9 (Neisseria meningitidis). As to the kind of experiment: cell_activity. The conditions noted are these: PAM N4CC; HEK293T, TIDE.

In the case of “GGAGUCGCCAGAGGCCGGUGGUGG / GGAGTCGCCAGAGGCCGGTGGTGGATTTCCTC / GAGGAAATCCACCACCGGCCTCTGGCGACTCC [TS16 sgRNA spacer ; TS16 LINC01588 target + PAM]”, the activity was found to be 28 % indels. The figure for “GUGUGUCCCUCUCCCCACCCGUCC / GTGTGTCCCTCTCCCCACCCGTCCCTGTCCGG / CCGGACAGGGACGGGTGGGGAGAGGGACACAC [TS47 sgRNA spacer ; TS47 VEGFA target + PAM]” is 23.1 % indels. In turn, “GCCUCCCUGCAGGGCUGCUCCC / GCCTCCCTGCAGGGCTGCTCCCCAGCCCAA / TTGGGCTGGGGAGCAGCCCTGCAGGGAGGC [TS6 sgRNA spacer ; TS6 LINC01588 target + PAM]” had an activity of 20 % indels.
